Data taken from PMC3470943, “Identification of BACE2 as an avid ß-amyloid-degrading protease” (Molecular Neurodegeneration, 2012).

Target: T1, BACE2 (Homo sapiens, UniProt Q9Y5Z0)
T1 construct: purchased R&D Systems
T1 sequence (Q9Y5Z0 63-518): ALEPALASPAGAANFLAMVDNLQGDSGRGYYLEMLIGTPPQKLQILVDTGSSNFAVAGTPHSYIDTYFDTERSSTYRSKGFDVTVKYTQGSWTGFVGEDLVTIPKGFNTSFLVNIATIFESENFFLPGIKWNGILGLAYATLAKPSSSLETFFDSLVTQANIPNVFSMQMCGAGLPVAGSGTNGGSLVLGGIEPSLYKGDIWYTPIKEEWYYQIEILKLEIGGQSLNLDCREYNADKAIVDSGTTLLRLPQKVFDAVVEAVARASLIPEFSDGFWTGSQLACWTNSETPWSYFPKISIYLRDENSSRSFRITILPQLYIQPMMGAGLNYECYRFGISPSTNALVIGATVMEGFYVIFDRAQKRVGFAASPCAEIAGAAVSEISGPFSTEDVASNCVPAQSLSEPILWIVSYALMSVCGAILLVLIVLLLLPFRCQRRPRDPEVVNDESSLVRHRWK
Assay: Cleavage of biotinylated Aβ by BACE2, immunoprecipitation/mass spectrometry (IP/MS)
Format: biochemical
Conditions: peptide 300 nM, BACE2 5 nM, within 1 h; 25 mM acetate buffer pH 4.0, 0.1% BSA; product Aβ34; SELDI-TOF MS
Experimental: We next investigated which peptide bond(s) within Aβ are hydrolyzed by BACE2 and BACE1. To that end, we co-incubated N-terminally biotinylated Aβ40 or Aβ42 (300nM) with BACE2 (5 nM) and analyzed the products by immunoprecipitation/mass spectrometry (IP/MS) (see Methods). […] To test whether any additional cleavages can occur, we incubated N-terminally biotinylated Aβ40 (300 nM) with a larger amount of BACE2 (25 nM) for 1 and 24 h. At these higher concentrations and longer incubation times, Aβ19 and Aβ20 were the principal N-terminal fragments remaining at the end of the reaction (Figure 3E-F).
The cleavage sites within Aβ40 and Aβ42 hydrolyzed by BACE2 and BACE1 were determined essentially as described with minor modifications. Briefly, Aβ peptides or biotinylated Aβ peptides were incubated for various lengths of time with recombinant BACE2 enzyme in Assay Buffer (25 mM acetate buffer, pH 4.0, supplemented with 0.1% BSA). The reaction was stopped by addition of protease inhibitor cocktail and pH adjustment. Aβ fragments were immediately precipitated by magnetic beads coated with streptavidin (for biotinylated Aβ) or magnetic beads coated with Ab9 antibody (for unmodified Aβ). […] Digested products were spotted onto a gold chip, dried, and analyzed using a Ciphergen ProteinChip SELDI time-of-flight system (Bio-Rad). […]

Substance	extent of hydrolysis by BACE2
N-terminally biotinylated Aβ42: Aβ42 biotinylated at the N-terminus, substrate for IP/MS	almost completely hydrolyzed
N-terminally biotinylated Aβ40: Aβ40 biotinylated at the N-terminus, substrate for IP/MS	almost completely hydrolyzed
